Test results as given in patent US20220401544A1.

Legend:
[1] = molecular target: N. meningitidis serogroup B factor H binding protein (FHbp, LP2086) variant A19 (Neisseria meningitidis serogroup B); assay: MEASURE flow cytometry, median over MenB isolates expressing A19
[2] = molecular target: N. meningitidis serogroup B factor H binding protein (FHbp, LP2086) variant B15 (Neisseria meningitidis serogroup B) (UniProt E6MV22); assay: MEASURE flow cytometry, median over MenB isolates expressing B15
[3] = molecular target: N. meningitidis serogroup B factor H binding protein (FHbp, LP2086) variant B44 (Neisseria meningitidis serogroup B); assay: MEASURE flow cytometry, median over MenB isolates expressing B44
[4] = molecular target: N. meningitidis serogroup B factor H binding protein (FHbp, LP2086) variant B09 (Neisseria meningitidis serogroup B) (UniProt E6MV22); assay: MEASURE flow cytometry, median over MenB isolates expressing B09
[5] = molecular target: N. meningitidis serogroup B factor H binding protein (FHbp, LP2086) variant A15 (Neisseria meningitidis serogroup B); assay: MEASURE flow cytometry, median over MenB isolates expressing A15
[6] = molecular target: N. meningitidis serogroup B factor H binding protein (FHbp, LP2086) variant A06 (Neisseria meningitidis serogroup B); assay: MEASURE flow cytometry, median over MenB isolates expressing A06
[7] = molecular target: N. meningitidis serogroup B factor H binding protein (FHbp, LP2086) variant A12 (Neisseria meningitidis serogroup B); assay: MEASURE flow cytometry, median over MenB isolates expressing A12
[8] = molecular target: N. meningitidis serogroup B factor H binding protein (FHbp, LP2086) variant A12 (Neisseria meningitidis serogroup B)
[9] = molecular target: N. meningitidis serogroup B factor H binding protein (FHbp, LP2086) variant A06 (Neisseria meningitidis serogroup B)
[10] = molecular target: N. meningitidis serogroup B factor H binding protein (FHbp, LP2086) variant B09 (Neisseria meningitidis serogroup B) (UniProt E6MV22)
[11] = molecular target: N. meningitidis serogroup B factor H binding protein (FHbp, LP2086) variant B44 (Neisseria meningitidis serogroup B)
[12] = molecular target: N. meningitidis serogroup B factor H binding protein (FHbp, LP2086) variant A56 (Neisseria meningitidis serogroup B)
[13] = molecular target: N. meningitidis serogroup B factor H binding protein (FHbp, LP2086) variant B15 (Neisseria meningitidis serogroup B) (UniProt E6MV22)
[14] = molecular target: N. meningitidis serogroup B factor H binding protein (FHbp, LP2086) variant B16 (Neisseria meningitidis serogroup B) (UniProt E6MV22)
[15] = molecular target: N. meningitidis serogroup B factor H binding protein (FHbp, LP2086) variant B24 (Neisseria meningitidis serogroup B) (UniProt E6MV22)
[16] = molecular target: N. meningitidis serogroup B factor H binding protein (FHbp, LP2086) variant A19 (Neisseria meningitidis serogroup B)
[17] = molecular target: N. meningitidis serogroup B factor H binding protein (FHbp, LP2086) variant A07 (Neisseria meningitidis serogroup B)
[18] = molecular target: N. meningitidis serogroup B factor H binding protein (FHbp, LP2086) variant A29 (Neisseria meningitidis serogroup B)
[19] = molecular target: N. meningitidis serogroup B factor H binding protein (FHbp, LP2086) variant B03 (Neisseria meningitidis serogroup B) (UniProt E6MV22)
[20] = molecular target: N. meningitidis serogroup B factor H binding protein (FHbp, LP2086) variant A15 (Neisseria meningitidis serogroup B)
[21] = molecular target: N. meningitidis serogroup B factor H binding protein (FHbp, LP2086) variant A22 (Neisseria meningitidis serogroup B)
[22] = molecular target: N. meningitidis serogroup B factor H binding protein (fHBP) variant A52 (Neisseria meningitidis serogroup B)
[23] = molecular target: N. meningitidis serogroup B factor H binding protein (fHBP) variant A40 (Neisseria meningitidis serogroup B)
[24] = molecular target: N. meningitidis serogroup B factor H binding protein (fHBP) variant A20 (Neisseria meningitidis serogroup B)
[25] = molecular target: N. meningitidis factor H binding protein (fHBP) variant A10 (Neisseria meningitidis serogroup B)
[26] = molecular target: N. meningitidis serogroup B factor H binding protein (fHBP) variant B91 (Neisseria meningitidis serogroup B)
[27] = molecular target: N. meningitidis serogroup B factor H binding protein (fHBP) variant A08 (Neisseria meningitidis serogroup B)
[28] = molecular target: N. meningitidis serogroup B factor H binding protein (fHBP) variant B10 (Neisseria meningitidis serogroup B)
[29] = molecular target: N. meningitidis serogroup B factor H binding protein (FHbp, LP2086) variant B16 (Neisseria meningitidis serogroup B) (UniProt E6MV22); assay: MEASURE flow cytometry, median over MenB isolates expressing B16
[30] = molecular target: N. meningitidis serogroup B factor H binding protein (FHbp, LP2086) variant A29 (Neisseria meningitidis serogroup B); assay: MEASURE flow cytometry, median over MenB isolates expressing A29
[31] = molecular target: N. meningitidis serogroup B factor H binding protein (fHBP, LP2086) variant A28 (Neisseria meningitidis serogroup B)
[32] = molecular target: N. meningitidis serogroup B factor H binding protein (fHBP, LP2086) variant B07 (Neisseria meningitidis serogroup B) (UniProt E6MV22)
[33] = molecular target: N. meningitidis serogroup B factor H binding protein (fHBP, LP2086) variant B08 (Neisseria meningitidis serogroup B) (UniProt E6MV22)
[34] = molecular target: N. meningitidis serogroup B factor H binding protein (fHBP, LP2086) variant A42 (Neisseria meningitidis serogroup B)
[35] = molecular target: N. meningitidis serogroup B factor H binding protein (fHBP, LP2086) variant A76 (Neisseria meningitidis serogroup B)
[36] = molecular target: N. meningitidis serogroup B factor H binding protein (fHBP, LP2086) variant B05 (Neisseria meningitidis serogroup B) (UniProt E6MV22)
[37] = molecular target: N. meningitidis serogroup B factor H binding protein (fHBP, LP2086) variant B52 (Neisseria meningitidis serogroup B) (UniProt E6MV22)
[38] = molecular target: N. meningitidis serogroup B factor H binding protein (fHBP, LP2086) variant B107 (Neisseria meningitidis serogroup B)
[39] = molecular target: N. meningitidis serogroup B factor H binding protein (fHBP, LP2086) variant B13 (Neisseria meningitidis serogroup B) (UniProt E6MV22)
[40] = molecular target: N. meningitidis serogroup B factor H binding protein (fHBP, LP2086) variant A63 (Neisseria meningitidis serogroup B)
[41] = molecular target: N. meningitidis serogroup B factor H binding protein (fHBP, LP2086) variant A02 (Neisseria meningitidis serogroup B)
[42] = molecular target: N. meningitidis serogroup B factor H binding protein (FHbp, LP2086) variant B24 (Neisseria meningitidis serogroup B) (UniProt E6MV22); assay: MEASURE flow cytometry, median over MenB isolates expressing B24
[43] = molecular target: N. meningitidis serogroup B factor H binding protein (FHbp, LP2086) variant A22 (Neisseria meningitidis serogroup B); assay: MEASURE flow cytometry, median over MenB isolates expressing A22
[44] = molecular target: N. meningitidis serogroup B factor H binding protein (FHbp, LP2086) variant B03 (Neisseria meningitidis serogroup B) (UniProt E6MV22); assay: MEASURE flow cytometry, median over MenB isolates expressing B03
[45] = molecular target: N. meningitidis serogroup B factor H binding protein (FHbp, LP2086) variant A56 (Neisseria meningitidis serogroup B); assay: MEASURE flow cytometry, variant group A56 (only one strain)

With monoclonal antibody MN86-994-11 the FHbp Variant Group MEASURE MFI Median [1] was 1760 MFI, the FHbp Variant Group MEASURE MFI Median [2] was 4820 MFI and the FHbp Variant Group MEASURE MFI Median [3] was 14800 MFI. For the same substance, the FHbp Variant Group MEASURE MFI Median [4] was 2280 MFI, the FHbp Variant Group MEASURE MFI Median [5] was 2900 MFI and the FHbp Variant Group MEASURE MFI Median [6] was 3090 MFI. It also gave an FHbp Variant Group MEASURE MFI Median [7] of 2470 MFI, a Strain MEASURE MFI [8] of 2540 MFI and a Strain MEASURE MFI [9] of 3370 MFI. For the same substance, the Strain MEASURE MFI [10] was 2090 MFI, the Strain MEASURE MFI [11] was 11300 MFI and the Strain MEASURE MFI [12] was 5000 MFI. The Strain MEASURE MFI [13] was 3780 MFI, the Strain MEASURE MFI [14] was 2350 MFI and the Strain MEASURE MFI [15] was 6970 MFI. The Strain MEASURE MFI [16] was 1930 MFI, the FHbp Variant Group MEASURE MFI Median [17] was 1100 MFI and the Strain MEASURE MFI [17] was 1380 MFI. For the same substance, the Strain MEASURE MFI [18] was 3840 MFI, the Strain MEASURE MFI [19] was 3980 MFI and the Strain MEASURE MFI [20] was 3000 MFI. It also gave a Strain MEASURE MFI [21] of 3130 MFI, a fHBP Expression (MFI) [22] of less than 1000 MFI and a fHBP Expression (MFI) [23] of less than 1000 MFI. The fHBP Expression (MFI) [24] was less than 1000 MFI, the fHBP Expression (MFI) [25] was less than 1000 MFI and the fHBP Expression (MFI) [26] was less than 1000 MFI. For the same substance, the fHBP Expression (MFI) [27] was less than 1000 MFI, the fHBP Expression (MFI) [28] was less than 1000 MFI and the FHbp Variant Group MEASURE MFI Median [29] was 2000 MFI. The FHbp Variant Group MEASURE MFI Median [30] was 5990 MFI, the fHBP Expression (MFI) [31] was 4190 MFI and the fHBP Expression (MFI) [32] was 1350 MFI. It also gave a fHBP Expression (MFI) [33] of 1560 MFI, a fHBP Expression (MFI) [34] of 1610 MFI and a fHBP Expression (MFI) [35] of 11300 MFI. It also gave a fHBP Expression (MFI) [36] of 2920 MFI, a fHBP Expression (MFI) [37] of 8730 MFI and a fHBP Expression (MFI) [38] of 11100 MFI. For the same substance, the fHBP Expression (MFI) [39] was 1850 MFI, the fHBP Expression (MFI) [40] was 10800 MFI and the fHBP Expression (MFI) [41] was 13200 MFI. For the same substance, the FHbp Variant Group MEASURE MFI Median [42] was 8460 MFI, the FHbp Variant Group MEASURE MFI Median [43] was 2500 MFI and the FHbp Variant Group MEASURE MFI Median [44] was 2940 MFI. For the same substance, the FHbp Variant Group MEASURE MFI Median [45] was 5000 MFI.
